Assays:
Assay in all cases: EMSA; EMSA: 5 ug GST fusion or 10 ng IVT protein, 25 C 30 min; 5% native PAGE in 0.5x TBE at 4 C; binding buffer, salt and pH not given
IVT-JDP2 = biological target: T1, IVT-JDP2 (mouse, UniProt P97875 1-163); conditions: protein: ivt; chain copies: 2; label: 32P 5' end (T4 kinase) as probe; blunt
T1 sequence: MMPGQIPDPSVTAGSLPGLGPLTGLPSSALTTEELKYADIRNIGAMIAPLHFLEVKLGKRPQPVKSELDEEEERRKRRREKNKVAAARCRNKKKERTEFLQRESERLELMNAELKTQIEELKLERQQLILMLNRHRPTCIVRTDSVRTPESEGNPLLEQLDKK

IVT-MafK = IVT-MafK (rat, UniProt Q8K4B3 1-156); conditions: protein: ivt; chain copies: 2; label: 32P 5' end (T4 kinase) as probe; blunt
Sequence of IVT-MafK (Q8K4B3 entry or part of it): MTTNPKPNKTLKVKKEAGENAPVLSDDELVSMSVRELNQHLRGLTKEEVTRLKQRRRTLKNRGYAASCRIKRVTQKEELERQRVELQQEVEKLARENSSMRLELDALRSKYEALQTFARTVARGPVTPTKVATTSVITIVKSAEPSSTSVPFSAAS

GST-JDP2 = biological target: T2, GST-JDP2 (mouse, UniProt P97875 1-163); conditions: protein: recombinant; tags: GST; chain copies: 2; label: 32P 5' end (T4 kinase) as probe; blunt
T2 sequence: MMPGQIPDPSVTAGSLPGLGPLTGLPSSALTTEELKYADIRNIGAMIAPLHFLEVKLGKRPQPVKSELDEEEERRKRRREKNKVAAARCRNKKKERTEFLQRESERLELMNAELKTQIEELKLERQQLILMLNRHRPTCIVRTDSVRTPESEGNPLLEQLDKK

Measured: binding result

B1: human NQO1-ARE WT (dsDNA)
DNA 1: CAGTCACAGTGACTCAGCAGAATCT
DNA 2: AGATTCTGCTGAGTCACTGTGACTG
binds: all assays above
